Measured values reported in patent US20170296640A1 (IMMATICS BIOTECHNOLOGIES, published 2017).

Target: T1, HLA-A*02:01 (peptide-receptive MHC class I monomer after UV cleavage of the UV-sensitive ligand) (human)
T1 construct: MHC monomers loaded by UV-ligand exchange and captured on streptavidin plates
Assay: UV ligand-exchange ELISA; exchange yield grade (+ >=10%, ++ >=20%, +++ >=50%, ++++ >=75%)
Outline: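 Peptide–MHC complexes formed by UV-ligand exchange, cleaving a UV-sensitive peptide so the test peptide can bind. Exchange yield measured by ELISA: complexes captured on streptavidin-coated wells, diluted 100-fold, detected with HRP anti-β2m (1 h, 37 °C) and TMB at 450 nm, against refolded HLA-A*02:01/MLA-001 standards (15-500 ng/ml).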

peptide exchange yield [%]	Binder
≥ 75	ILWHFVASL [ILWHFVASL (SEQ ID NO: 265)]
≥ 75	TLQTVPLTTV [TLQTVPLTTV (SEQ ID NO: 281)]
≥ 75	VVVDSDSLAFV [VVVDSDSLAFV (SEQ ID NO: 270)]
20 to 50	NMISYVVHL [NMISYVVHL (SEQ ID NO: 276)]
50 to 75	ILSDVTQGL [ILSDVTQGL (SEQ ID NO: 29)]
≥ 75	KLLNLISKL [KLLNLISKL (SEQ ID NO: 274)]
50 to 75	RLAPEIVSA [RLAPEIVSA (SEQ ID NO: 288)]
≥ 75	QLTEMLPSI [QLTEMLPSI (SEQ ID NO: 266)]
50 to 75	KLQEQIHRV [KLQEQIHRV (SEQ ID NO: 284)]
50 to 75	KLDHTLSQI [KLDHTLSQI (SEQ ID NO: 272)]
50 to 75	HLTEDTPKV [HLTEDTPKV (SEQ ID NO: 286)]
≥ 75	YLLDQPVLEQRL [YLLDQPVLEQRL (SEQ ID NO: 271)]
50 to 75	FLLFINHRL [FLLFINHRL (SEQ ID NO: 278)]
20 to 50	AILLPQPPK [AILLPQPPK (SEQ ID NO: 273)]
≥ 75	VLFPLPTPL [VLFPLPTPL (SEQ ID NO: 268)]
≥ 75	LMGPVVHEV [LMGPVVHEV (SEQ ID NO: 262)]
≥ 75	YLLEQGAQV [YLLEQGAQV (SEQ ID NO: 282)]
≥ 75	SLLNHLPYL [SLLNHLPYL (SEQ ID NO: 280)]
50 to 75	ALMPVTPQA [ALMPVTPQA (SEQ ID NO: 283)]
50 to 75	ILTGTPPGV [ILTGTPPGV (SEQ ID NO: 264)]
50 to 75	NLAGENILNPL [NLAGENILNPL (SEQ ID NO: 279)]
50 to 75	SLLETGSDLLL [SLLETGSDLLL (SEQ ID NO: 267)]
50 to 75	SITAVTPLL [SITAVTPLL (SEQ ID NO: 285)]
50 to 75	FLNQESFDL [FLNQESFDL (SEQ ID NO: 27)]
50 to 75	GLMDNEIKV [GLMDNEIKV (SEQ ID NO: 263)]
≥ 75	VLQNVAFSV [VLQNVAFSV (SEQ ID NO: 269)]
50 to 75	FLSNANPSL [FLSNANPSL (SEQ ID NO: 28)]
≥ 75	ILMGHSLYM [ILMGHSLYM (SEQ ID NO: 287)]
50 to 75	FLIDLNSTHGTFL [FLIDLNSTHGTFL (SEQ ID NO: 277)]
≥ 75	KLMDLEDCAL [KLMDLEDCAL (SEQ ID NO: 275)]
